B1: MBP^260–336 (domain or fragment)
chain: not shown
B2: MBP^97–164 (domain or fragment)
chain: not shown
B3: triple mutant SecB (SecB™), V40A/L42A/L44A (natural protein)
chain: MSEQNNTEMTFQIQRIYTKDISFEAPNAPHVFQKDWQPEAKADADTASSQLADDVYEVVLRVTVTASLGEETAFLCEVQQGGIFSIAGIEGTQMAHCLGAYCPNILFPYARECITSMVSRGTFPQLNLAPVNFDALFMNYLQQQAGEGTEEHQ
B4: MBP^160–201 (domain or fragment)
chain: not shown
B5: MBP^198–265 (domain or fragment)
chain: not shown
B6: MBP^331–396 (domain or fragment)
chain: not shown
B7: MBP^29–99 (domain or fragment)
chain: not shown
B8: MBP^67–99 (domain or fragment)
chain: not shown
B9: SecB (natural protein)
chain: MSEQNNTEMTFQIQRIYTKDISFEAPNAPHVFQKDWQPEVKLDLDTASSQLADDVYEVVLRVTVTASLGEETAFLCEVQQGGIFSIAGIEGTQMAHCLGAYCPNILFPYARECITSMVSRGTFPQLNLAPVNFDALFMNYLQQQAGEGTEEHQDA

Tests used:
SecB = biological target: B9; experiment: NMR titration
[1] = biological target: T1, alkaline phosphatase (PhoA) (E. coli, UniProt P00634 1-471 = phosphatase); experiment: ITC
[2] = biological target: maltose binding protein (MBP), MBP^1–396 (E. coli, UniProt P0AEX9 1-396 = MBP); experiment: SEC-MALS
[3] = biological target: T1, alkaline phosphatase (PhoA); experiment: SEC-MALS
NMR structure = biological target: the molecule itself; experiment: NMR structure

Binder | binding result (SecB) | further results
B1 | binds | –
B2 | binds | –
B3 | – | fold reduction in affinity against wild type SecB [1]: 40 fold
B4 | binds | –
B5 | binds | –
B6 | binds | –
B7 | binds | –
B8 | binds | –
B9 | – | stoichiometry N [2]: 1 SecB:MBP; stoichiometry N [3]: 1 SecB:PhoA; binding result (NMR structure): binds

Reference: article PMC5161705 (Nature, 2016)
